Blank lines part the entries; values can stand above or below the molecule they belong to.
How the values were obtained:
[1] = target: IL-TIF protein (SEQ ID NO:3) (human) (UniProt Q9GZX6); experiment: cell-based or functional assay
[2] = target: T1, CRF2-4/zcytor11 heterodimeric receptor on BaF3/CRF2-4/zcytor11 cells (human, UniProt Q08334 20-325); experiment: cell-based or functional assay
T1 sequence 1: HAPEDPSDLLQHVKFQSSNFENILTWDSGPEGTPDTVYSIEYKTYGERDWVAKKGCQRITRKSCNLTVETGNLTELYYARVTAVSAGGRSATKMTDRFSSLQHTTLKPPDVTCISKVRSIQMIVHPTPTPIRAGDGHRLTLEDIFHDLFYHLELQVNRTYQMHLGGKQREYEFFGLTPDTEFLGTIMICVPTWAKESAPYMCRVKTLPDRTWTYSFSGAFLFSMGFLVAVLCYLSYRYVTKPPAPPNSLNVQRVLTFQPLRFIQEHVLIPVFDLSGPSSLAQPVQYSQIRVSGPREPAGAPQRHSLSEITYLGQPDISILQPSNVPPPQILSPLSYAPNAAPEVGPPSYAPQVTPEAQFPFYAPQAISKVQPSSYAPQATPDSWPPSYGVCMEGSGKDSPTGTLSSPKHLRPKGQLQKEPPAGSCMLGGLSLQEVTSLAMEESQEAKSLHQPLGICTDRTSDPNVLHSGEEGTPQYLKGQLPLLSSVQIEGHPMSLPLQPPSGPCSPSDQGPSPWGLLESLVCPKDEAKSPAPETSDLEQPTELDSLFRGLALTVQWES
T1 sequence 2: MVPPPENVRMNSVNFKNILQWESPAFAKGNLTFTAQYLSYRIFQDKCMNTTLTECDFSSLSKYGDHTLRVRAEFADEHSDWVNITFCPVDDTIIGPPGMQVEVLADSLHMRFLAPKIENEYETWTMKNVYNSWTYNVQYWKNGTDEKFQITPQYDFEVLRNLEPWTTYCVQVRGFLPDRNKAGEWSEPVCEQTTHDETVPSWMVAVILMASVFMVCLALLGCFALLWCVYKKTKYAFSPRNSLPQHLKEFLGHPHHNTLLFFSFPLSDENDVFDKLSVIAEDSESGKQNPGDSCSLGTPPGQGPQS

concentration at which inhibition of IL-TIF-induced proliferation was barely detectable [1]: 63 ng/mL
concentration giving complete inhibition of IL-TIF-induced proliferation [1]: 8 µg/mL
concentration giving partial inhibition of IL-TIF-induced proliferation [1]: 0.125 to 4 µg/mL
Molecule: CRF2-4/zcytor11-Fc4 soluble heterodimer receptor (Fc fusion)

proliferation of BaF3/CRF2-4/zcytor11 cells (Alamar Blue), fold induction at 0.06 ng/ml IL-TIF-CEE [2]: 2 fold
proliferation of BaF3/CRF2-4/zcytor11 cells (Alamar Blue), fold over background at 50 ng/ml IL-TIF-CEE [2]: ~15 fold
B1: IL-TIF-CEE polypeptide purified from BHK 570 cells (ligand)
chain: APISSHCRLDKSNFQQPYITNRTFMLAKEASLADNNTDVRLIGEKLFHGVSMSERCYLMKQVLNFTLEEVLFPQSDRFQPYMQEVVPFLARLSNRLSTCHIEGDDLHIQRNVQKLKDTVKKLGESGEIKAIGELDLLFMSLRNACIEYMPME

proliferation of BaF3/CRF2-4/zcytor11 cells (Alamar Blue) at 100 pg/ml IL-TIF [2]: 13 fold
B2: IL-TIF protein (SEQ ID NO:3) (ligand)
chain: APISSHCRLDKSNFQQPYITNRTFMLAKEASLADNNTDVRLIGEKLFHGVSMSERCYLMKQVLNFTLEEVLFPQSDRFQPYMQEVVPFLARLSNRLSTCHIEGDDLHIQRNVQKLKDTVKKLGESGEIKAIGELDLLFMSLRNACI

From US20040023341A1 (ZymoGenetics, published 2004)
